Two molecules from patent US20080199467A1 (TRANSTECH PHARMA, published 2008) can be followed below.

This test addresses T1, BSA (UniProt P02769 25-607).
T1 construct: Negative control coating; also called BSA coating alone; BSA+wash
The test can be described thus: ELISA, plate coated with BSA only, dilutions of fusion protein, anti-human IgG1 immunodetection complex, A405. On the procedure:
Known RAGE ligands were coated onto the surface of Maxisorb plates at a concentration of 5 micrograms per well. Plates were incubated at 4° C. overnight. Following ligand incubation, plates were aspirated and a blocking buffer of 1% BSA in 50 mM imidizole buffer (pH 7.2) was added to the plates for 1 hour at room temperature. The plates were then aspirated and/or washed with wash buffer (20 mM Imidizole, 150 mM NaCl, 0.05% Tween-20, 5 mM CaCl₂ and 5 mM MgCl₂, pH 7.2). […] The RAGE fusion protein was added at increasing dilutions of the initial sample. The RAGE fusion protein was allowed to incubate with the immobilized ligand at 37° C. for one hour after which the plate was washed and assayed for binding of the RAGE fusion protein. Binding was detected by the addition of an immunodetection complex containing a monoclonal mouse anti-human IgG1 diluted 1:11,000 to a final assay concentration (FAC) of 21 ng/100 μL, a biotinylated goat anti-mouse IgG diluted 1:500, to a FAC of […], and an avidin-linked alkaline phosphatase. […] Binding of the complex to the immobilized RAGE fusion protein was quantified by measuring conversion of PNPP to para-nitrophenol (PNP) which was measured spectrophotometrically at 405 nm.
In general terms: An ELISA detects its analyte on a solid surface through an enzyme-linked reagent.

T1 sequence (P02769 25-607 limits assumed): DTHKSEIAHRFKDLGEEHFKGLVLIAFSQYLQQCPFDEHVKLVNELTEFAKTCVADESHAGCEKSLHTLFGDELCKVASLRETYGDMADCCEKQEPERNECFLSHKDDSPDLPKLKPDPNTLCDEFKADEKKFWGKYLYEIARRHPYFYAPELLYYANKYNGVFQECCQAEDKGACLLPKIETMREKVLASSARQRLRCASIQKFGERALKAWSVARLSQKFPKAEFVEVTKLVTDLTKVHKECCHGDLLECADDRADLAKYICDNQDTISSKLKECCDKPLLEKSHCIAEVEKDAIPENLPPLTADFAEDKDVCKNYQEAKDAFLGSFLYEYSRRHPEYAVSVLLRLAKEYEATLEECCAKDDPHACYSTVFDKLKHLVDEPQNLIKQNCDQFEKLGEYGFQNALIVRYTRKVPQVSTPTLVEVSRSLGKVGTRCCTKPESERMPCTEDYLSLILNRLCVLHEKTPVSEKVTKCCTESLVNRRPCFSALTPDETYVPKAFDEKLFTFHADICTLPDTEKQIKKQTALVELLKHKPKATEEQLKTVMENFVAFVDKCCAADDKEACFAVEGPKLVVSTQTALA

B1: RAGE fusion protein TTP-4000 (Fc fusion)
chain: QNITARIGEPLVLKCKGAPKKPPQRLEWKLNTGRTEAWKVLSPQGGGPWDSVARVLPNGSLFLPAVGIQDEGIFRCQAMNRNGKETKSNYRVRVYQIPGKPEIVDSASELTAGVPNKVGTCVSEGSYPAGTLSWHLDGKPLVPNEKGVSVKEQTRRHPETGLFTLQSELMVTPARGGDPRPTFSCSFSPGLPRHRALRTAPIQPRVWEPVPLEEVQLVVEPEGGAVAPPSVFLFPPKPKDTLMISRTPEVTCVVVDVSHEDPEVKFNWYVDGVEVHNAKTKPREEQYNSTYRVVSVLTVLHQDWLNGKEYKCKVSNKALPAPIEKTISKAKGQPREPQVYTLPPSRDELTKNQVSLTCLVKGFYPSDIAVEWESNGQPENNYKTTPPVLDSDGSFFLYSKLTVDKSRWQQGNVFSCSVMHEALHNHYTQKSLSLSPGK
modifications: N-terminal residue glutamine (Q) or pyroglutamic acid (pE) or a mixture thereof; glycosylation sites at N2 and N288 (numbering of the processed protein); C-terminal residue may be cleaved off
notes: The end of the range (461) is derived from the coding length 1-1386 and from residues P459 and G460 near the terminal codon; also called TT4; four domain fusion protein
Take B1: the binding result is given as “no binding”.

B2: RAGE fusion protein TTP-3000 (Fc fusion)
chain: QNITARIGEPLVLKCKGAPKKPPQRLEWKLNTGRTEAWKVLSPQGGGPWDSVARVLPNGSLFLPAVGIQDEGIFRCQAMNRNGKETKSNYRVRVYQIPGKPEIVDSASELTAGPSVFLFPPKPKDTLMISRTPEVTCVVVDVSHEDPEVKFNWYVDGVEVHNAKTKPREEQYNSTYRVVSVLTVLHQDWLNGKEYKCKVSNKALPAPIEKTISKAKGQPREPQVYTLPPSRDELTKNQVSLTCLVKGFYPSDIAVEWESNGQPENNYKTTPPVLDSDGSFFLYSKLTVDKSRWQQGNVFSCSVMHEALHNHYTQKSLSLSPGK
modifications: N-terminal glutamine may be cyclized to pyroglutamic acid (SEQ ID NO: 19)
notes: The range 24-346 is derived from this and from the coding length 1-1041; No characterization of the expressed TTP-3000 is reported; also called TT3; three domain fusion protein
For B2, the binding result is recorded as “no binding”.
